# The supplement of paper PMC9732359
# ± gives the uncertainty stated by the source.
# Assay: protein stability index of a GFP-peptide fusion (yeast GPS) (PSI 1-4); higher = more stable; sorted into four equal gates, so the index is relative within each strain
# Settings: pdr5∆
# Outline: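 The protein stability index combines read frequencies across sorting gates, each weighted by its gate number and then summed. To obtain those frequencies, a pooled yeast library of GFP fusions to tiled 17-residue yeast protein peptides, on a plasmid also expressing Cherry, was grown to mid-log phase in leucine-free medium. The cells were sorted into four equal gates by GFP/Cherry ratio before plasmid amplification by PCR and Illumina sequencing.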
row,Sequence,protein stability index
1,VQPPLDKFPYKKLELPK [SWP82],2.11 ± 0.055
2,VRATFRNNLPAKTFGAS [RPL33A],3.05 ± 0.16

# Same assay, conditions: san1∆
row,Sequence,protein stability index
1,VDESLLSTLPAGKSLVS [QCR2],1.85 ± 0.26
2,VDFIKHSLSQAIKWDGS [PRE3],1.61 ± 0.26
3,VDIRVGKKSSSSTKDYL [RET1],3.56 ± 0.13
4,VDKGAIMKNKDFILSLL [YJL039C/NUP192],1.95 ± 0.11
5,VDKSRKVAHTSYKRIYG [PRE8],3.28 ± 0.17
6,VDNTVPSTTLFNFGGKS [YOR098C/NUP1],2.28 ± 0.058
7,VDPFTRKEWFDIKAPST [RPS1A],2.55 ± 0.045
8,VDSGEERNEQEREIMND [SWI3],3.02 ± 0.079
9,VDSKTKEPVDDKDVKAK [FAS2],2.28 ± 0.13
10,VDSTFQKVSENFEAVFE [SMC3],3.42 ± 0.063
11,VDVAIPCNNRGKHSIGL [RPS0A],3.09 ± 0.067
12,VEDFLERRLQTQVYKLG [RPS9A],1.97 ± 0.27
13,VEDYLSSVTSDSMKYTI [RPC82],3.05 ± 0.14
14,VEEIKLQKEKELHKEGT [SMC2],2.81 ± 0.095
15,VEELMKKRRGSRIYKTI [SNU114],1.62 ± 0.088
16,VEENRVRYTTSVMPPNE [DLS1],2.85 ± 0.048
17,VEFCGYSIPHPSENLLN [RPC19],2.92 ± 0.05
18,VEFCRNINSTDKSIDTS [YML103C/NUP188],3.39 ± 0.097
19,VEKVATAVLSTTARAKA [RPN2],2.93 ± 0.13
20,VEQYKFRETTHSKRELD [BRR2],2.58 ± 0.054
21,VETILSGKARICIVGGY [FAS2],1.23 ± 0.16
22,VEVLLVNYNSDMIKCFL [NUT1],1.51 ± 0.17
23,VFDLCWNSLMYALQSVK [RRP43],2.04 ± 0.074
24,VFDTAITSWYENHNKGK [QCR9],2.65 ± 0.1
25,VFIFPTSNWEIYKPLLF [SRB8],2.84 ± 0.062

row,Sequence,protein stability index
1,VFNNGIVVLVPKFGVEG [DIS3],2.27 ± 0.074
2,VFQDNVYKIYNHVMPLK [SIN4],1.69 ± 0.098
3,VGKVMNKNQETAISVAK [RPT6],3.23 ± 0.082
4,VGQLNKVVDQLFEKASV [RPN6],2.77 ± 0.076
5,VGRLASVVAKQLLNGQK [RPL16A],2.99 ± 0.13
6,VGSEKVLQDLRLGSKKL [YJL039C/NUP192],3.38 ± 0.13
7,VGSLVVKSSMGPAFRLY [RPL1A],3.14 ± 0.051
8,VGVHIADVTHFVKPGTA [DIS3],2.9 ± 0.052
9,VGVIGPLHSGKTSLMDL [SNU114],3.29 ± 0.19
10,VGVSHTNEEVRNMAEEF [CYT1],2.01 ± 0.13
11,VHPGANYLLKRNEDARR [RPO31],2.93 ± 0.077
12,VHRITDEEASYKLGKVK [RPS4A],2.98 ± 0.12
13,VIANPKGEMKGSAITGP [RPL23A],2.64 ± 0.14
14,VIEMKRCFENLQNKSFK [UBP6],3.1 ± 0.16
15,VIGLDSEHDKKRLSAAL [YML103C/NUP188],3.14 ± 0.13
16,VIKTLTVDVSSPTENGV [RPL22B],2.32 ± 0.13
17,VILGDANSSTIRVTNSF [RPN8],2.89 ± 0.066
18,VILQSDLEEAYATQVKT [RPT3],2.3 ± 0.083
19,VINIAKAHPNFPIALQW [FAS1],2.25 ± 0.091
20,VIQQDKYQKALHYLKKF [SRP72],1.2 ± 0.14
21,VITLAEYEKRNHGGSLG [SRP68],3.28 ± 0.074
22,VITNLFSAIPFVGNDIV [COB],3.14 ± 0.034
23,VIWSEDNDEKLIIRCRV [RPO21],3.53 ± 0.088
24,VKAQRPITGASLDLIKE [RPL24A],2.69 ± 0.074
25,VKDFTSLGFNEVFSRPE [RPO21],2.96 ± 0.27

row,Sequence,protein stability index
1,VKDKEEDHIFFKYIYEL [YDL116W/NUP84],1.16 ± 0.16
2,VKEMEPKQSDEYLKRVS [SIR3],3.05 ± 0.05
3,VKKQKSARGIETRPAQV [FAS2],3.1 ± 0.083
4,VKLKQQKVNAVDSTFQK [SMC3],3.36 ± 0.15
5,VKLYGREGSSARTIKAT [RPB2],3.25 ± 0.088
6,VKNVKNSDLEFNTFWDE [ARP9],3.53 ± 0.11
7,VKRIQSVPLVIGQFLEP [RPT3],2.38 ± 0.11
8,VKRLLFTIRGFKQKLNE [MTW1],2.86 ± 0.044
9,VKVNHNEKRYATASAIA [RPL4A],2.1 ± 0.12
10,VLALKVEDFLERRLQTQ [RPS9A],2.63 ± 0.072
11,VLDIVPGSSITETEVER [SRB4],2.57 ± 0.18
12,VLETHESGIKPYFEQKI [RPT6],2.58 ± 0.065
13,VLFAAYKVEHPFFARFK [RPB11],2.18 ± 0.067
14,VLIFFQMTQIMDIMEDF [SNF2],2.18 ± 0.13
15,VLKESIVNICDIQEEQV [PUP1],3.33 ± 0.14
16,VLLTFLQDELHKVSSQS [YCS4],2.95 ± 0.23
17,VLLVLPFTDRSVVRGNT [COB],3.52 ± 0.07
18,VLQDLRLGSKKLVEIIW [YJL039C/NUP192],3.15 ± 0.068
19,VLQKVIEWAEHHRDSNF [SKP1],3.04 ± 0.049
20,VLRLNAIPLLKVLRKFR [NUT1],2.06 ± 0.084
21,VLSTEEILNIFKHISVK [RPO21],2.94 ± 0.12
22,VLVLRGTLEGHNGWVTS [ASC1],2.1 ± 0.15
23,VLVSSVTEANIIKLVEG [RPS12],2.67 ± 0.083
24,VLYHTSGAITFVNETPR [PRP8],2.43 ± 0.068
25,VMEYDVKFYEIFNFDQL [SRB8],1.66 ± 0.13

row,Sequence,protein stability index
1,VMSSDDENAPVATNANA [PRE10],3.15 ± 0.13
2,VNAIKNEVKEWAVTLDT [DSN1],3.1 ± 0.074
3,VNDFSDITSDQLLQRLN [SMC3],2.41 ± 0.083
4,VNDKYKTCAEVIGGNSL [SMC3],3.29 ± 0.11
5,VNEENDSYIALYEKDIV [RET1],2.69 ± 0.061
6,VNESRNSDDIIDVDMDA [SRB5],2.57 ± 0.078
7,VNGSTTAGVGSTPNFGG [SIN4],3.4 ± 0.078
8,VNGVPLRRVNARYVIAT [RPL6A],1.37 ± 0.11
9,VNLDNTAVGKAAVVKTS [RPT5],3.28 ± 0.041
10,VNLENPIPIAVLDSYTP [FAS1],1.69 ± 0.071
11,VNLSQEALQYDPQPFLK [SNU114],2.97 ± 0.044
12,VNQDSTYKYFEVILVDP [RPL15A],3.12 ± 0.048
13,VPISTSQTNNSFLSGVK [SIR4],2.63 ± 0.067
14,VPKSIAKTLTYPEVVTP [RPO21],2.39 ± 0.039
15,VPNILSLDMNSMNKELI [NUT1],1.46 ± 0.27
16,VPVTKLGRLVKAGKITT [RPS2],3.03 ± 0.11
17,VQARDNSQVFGVARIYA [RPS14B],2.78 ± 0.047
18,VQFGLNEETFTVPELEI [ARP9],2.78 ± 0.11
19,VQGELKPTVILKLLKEN [FAS1],2.75 ± 0.19
20,VQIGAEIILDFLQDKVQ [CSI1],2.88 ± 0.061
21,VQMAKILRKELSEEKEV [MCD1],2.9 ± 0.12
22,VQPPLDKFPYKKLELPK [SWP82],2.73 ± 0.061
